{"source": "patent US20240270828A1", "about": "(UAB RESEARCH FOUNDATION, published 2024)", "key": {"SARS-CoV Spike protein [1]": {"molecular_target": "T1, SARS-CoV Spike protein (SARS-CoV, UniProt P59594 14-1195)"}, "[2]": {"molecular_target": "Spike of live SARS-CoV-2 WT virus (SARS-CoV-2, UniProt P0DTC2 14-1273)", "test": "cell-based or functional assay"}, "[3]": {"molecular_target": "T2, MERS-CoV S2 (Sino Biological, 40070-V08) (MERS-CoV, UniProt K9N5Q8 726-1296)", "T2 sequence": "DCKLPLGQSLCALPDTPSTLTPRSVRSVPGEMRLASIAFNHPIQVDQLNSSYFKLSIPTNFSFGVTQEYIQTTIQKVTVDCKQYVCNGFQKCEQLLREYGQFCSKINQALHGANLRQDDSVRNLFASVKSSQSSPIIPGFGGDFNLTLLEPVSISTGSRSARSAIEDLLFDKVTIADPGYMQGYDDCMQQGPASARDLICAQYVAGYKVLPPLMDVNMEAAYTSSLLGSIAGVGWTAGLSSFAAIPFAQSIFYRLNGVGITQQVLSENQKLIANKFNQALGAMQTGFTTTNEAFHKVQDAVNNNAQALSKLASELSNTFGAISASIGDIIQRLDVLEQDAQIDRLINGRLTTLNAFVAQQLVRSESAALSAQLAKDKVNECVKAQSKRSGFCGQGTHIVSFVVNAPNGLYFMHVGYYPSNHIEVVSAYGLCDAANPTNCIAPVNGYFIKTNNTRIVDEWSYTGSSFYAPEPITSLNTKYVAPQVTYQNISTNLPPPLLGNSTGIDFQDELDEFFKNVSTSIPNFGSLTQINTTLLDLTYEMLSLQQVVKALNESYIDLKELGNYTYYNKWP", "test": "SPR/BLI, method not told apart"}, "SARS-CoV Spike protein [4]": {"molecular_target": "T1, SARS-CoV Spike protein", "test": "SPR/BLI, method not told apart"}, "[5]": {"molecular_target": "T3, SARS-CoV-2 S1 (40591-V08H3, Sino Biological) (SARS-CoV-2, UniProt P0DTC2 16-685)", "T3 construct": "domain: S1", "test": "ELISA, hmAb at 10 and 1 ug/ml in duplicate; AUC"}, "[6]": {"molecular_target": "T4, SARS-CoV-2 S2 (40590-V08B, Sino Biological) (SARS-CoV-2, UniProt P0DTC2 686-1213)", "T4 construct": "domain: S2", "test": "ELISA, hmAb at 10 and 1 ug/ml in duplicate; AUC"}, "[7]": {"molecular_target": "T5, SARS-CoV-2 S1+S2 (40589-V08B1, Sino Biological) (SARS-CoV-2, UniProt P0DTC2 16-1213)", "test": "ELISA, hmAb at 10 and 1 ug/ml in duplicate; AUC"}, "[8]": {"molecular_target": "T3, SARS-CoV-2 S1 (40591-V08H3, Sino …)", "test": "ELISA on coated protein, anti-human IgG-HRP; AUC of the OD"}, "[9]": {"molecular_target": "T4, SARS-CoV-2 S2 (40590-V08B, Sino …)", "test": "ELISA on coated protein, anti-human IgG-HRP; AUC of the OD"}, "[10]": {"molecular_target": "T5, SARS-CoV-2 S1+S2 (40589-V08B1, Sino …)", "test": "ELISA on coated protein, anti-human IgG-HRP; AUC of the OD"}, "[11]": {"molecular_target": "T6, OC43 S2 (40607-V08B1, Sino Biological) (HCoV-OC43, UniProt P36334 759-1297)", "T6 construct": "domain: S2", "T6 sequence": "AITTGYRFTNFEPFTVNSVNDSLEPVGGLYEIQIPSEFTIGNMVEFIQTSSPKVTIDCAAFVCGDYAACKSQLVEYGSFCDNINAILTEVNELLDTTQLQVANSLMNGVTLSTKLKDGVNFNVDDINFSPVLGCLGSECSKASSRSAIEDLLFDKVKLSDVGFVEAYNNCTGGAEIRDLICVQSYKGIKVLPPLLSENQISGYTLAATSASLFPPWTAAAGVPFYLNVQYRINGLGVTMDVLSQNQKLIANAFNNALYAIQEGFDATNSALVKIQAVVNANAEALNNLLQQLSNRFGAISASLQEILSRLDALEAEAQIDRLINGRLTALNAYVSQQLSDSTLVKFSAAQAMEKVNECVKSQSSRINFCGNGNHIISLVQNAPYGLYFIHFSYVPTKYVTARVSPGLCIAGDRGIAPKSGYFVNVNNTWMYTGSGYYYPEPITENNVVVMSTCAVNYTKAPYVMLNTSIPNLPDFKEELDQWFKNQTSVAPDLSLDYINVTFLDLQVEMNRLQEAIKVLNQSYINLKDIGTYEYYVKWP", "test": "ELISA titration of 1249A8 on coated Spike proteins, mean Abs at 450 nm"}, "[12]": {"molecular_target": "T2, MERS-CoV S2 (Sino Biological, 40070-V08)", "test": "BLI, mAb on anti-human Fc biosensor, MERS Spike protein in solution"}}, "note": "Read-outs that look alike come from different tables or passages of the source."}
{"binder": "1249A8 (antibody, V domains shown) VH: QVQLVQSGAEVKKPGASMKVSCKASGFTFTDYYMHWVRQAPRQGLEWMGLINPSGSGTAYAQNFQGRVTLARDTSTSTLYMEMGSLTSDDTAVYYCARMDSSGSYDHWGQGTLVTVSS VL: ETTLTQSPGTLSLSPGDRATLSCRASQTIRISYLAWYQQKPGQAPRLLVYGPSIRATGIPDRFSARGSGTDFTLTISRLEPEDFAVYYCQHYGSSPPRYTFGQGTKLEIK", "values": [{"measurement": "Kd", "setting": "SARS-CoV Spike protein [1]", "result": 3.15, "unit": "nM"}, {"measurement": "Neutralization IC50 (µg/ml), Live Virus WT", "setting": "[2]", "result": 1.77, "unit": "µg/mL"}, {"measurement": "Kd", "setting": "[3]", "result": 0.58, "unit": "nM"}, {"measurement": "Kd", "setting": "SARS-CoV Spike protein [4]", "result": 3.2, "unit": "nM"}, {"measurement": "Binding AUC", "setting": "[5]", "result": 1.4}, {"measurement": "binding result", "setting": "[5]", "result": "no binding (tested: 10 ug/ml)"}, {"measurement": "Binding AUC", "setting": "[6]", "result": 28.2}, {"measurement": "Binding AUC", "setting": "[7]", "result": 24.8}, {"measurement": "Binding AUC", "setting": "[8]", "result": 1.4}, {"measurement": "Binding AUC", "setting": "[9]", "result": 28.2}, {"measurement": "Binding AUC", "setting": "[10]", "result": 24.8}, {"measurement": "binding result", "setting": "[11]", "result": "binds"}, {"measurement": "Kd", "setting": "[12]", "result": 0.56, "unit": "nM"}]}
